# Results reported in patent US20210188994A1.
# Target: His-tagged FcγRIIIa recombinant protein (UniProt P08637)
# Experiment: SPR (BIACORE X100), His-tagged FcγRIIIa captured on anti-His CM5 chip, antibody as analyte, 1:1 Langmuir fit
# UniProt P08637, sequence (P08637 17-208 limits assumed): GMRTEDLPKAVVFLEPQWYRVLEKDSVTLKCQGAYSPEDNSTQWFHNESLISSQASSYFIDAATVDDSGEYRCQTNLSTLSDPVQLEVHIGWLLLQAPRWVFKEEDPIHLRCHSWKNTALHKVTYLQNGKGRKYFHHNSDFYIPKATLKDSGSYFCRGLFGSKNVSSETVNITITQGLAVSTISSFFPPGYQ
substance,measurement,value
"GAZYVA (obinutuzumab), commercial afucosylated anti-CD20 antibody",Kd,39.9 nM
same,koff,0.0069 s⁻¹
same,kon,173000 M⁻¹ s⁻¹
